Source: the supplement of paper PMC10065799, “High-throughput profiling of sequence recognition by tyrosine kinases and SH2 domains using bacterial peptide display” (eLife, 2023)

Molecular target: Fes (UniProt P07332)
Test: phosphorylation enrichment, bacterial display (enrichment ratio); higher = better substrate or ligand; peptides without Tyr show the background
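Further: 11-residue human phosphosite peptides and single-mutation variants displayed on the E. coli surface, counted by deep sequencing, each peptide's frequency after selection divided by its frequency in the unselected input library; frequency after pTyr selection over input frequency; kinase dosed for 20-30% of maximal phosphorylation in three min.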

Fes, sequence (P07332 whole entry, looked up): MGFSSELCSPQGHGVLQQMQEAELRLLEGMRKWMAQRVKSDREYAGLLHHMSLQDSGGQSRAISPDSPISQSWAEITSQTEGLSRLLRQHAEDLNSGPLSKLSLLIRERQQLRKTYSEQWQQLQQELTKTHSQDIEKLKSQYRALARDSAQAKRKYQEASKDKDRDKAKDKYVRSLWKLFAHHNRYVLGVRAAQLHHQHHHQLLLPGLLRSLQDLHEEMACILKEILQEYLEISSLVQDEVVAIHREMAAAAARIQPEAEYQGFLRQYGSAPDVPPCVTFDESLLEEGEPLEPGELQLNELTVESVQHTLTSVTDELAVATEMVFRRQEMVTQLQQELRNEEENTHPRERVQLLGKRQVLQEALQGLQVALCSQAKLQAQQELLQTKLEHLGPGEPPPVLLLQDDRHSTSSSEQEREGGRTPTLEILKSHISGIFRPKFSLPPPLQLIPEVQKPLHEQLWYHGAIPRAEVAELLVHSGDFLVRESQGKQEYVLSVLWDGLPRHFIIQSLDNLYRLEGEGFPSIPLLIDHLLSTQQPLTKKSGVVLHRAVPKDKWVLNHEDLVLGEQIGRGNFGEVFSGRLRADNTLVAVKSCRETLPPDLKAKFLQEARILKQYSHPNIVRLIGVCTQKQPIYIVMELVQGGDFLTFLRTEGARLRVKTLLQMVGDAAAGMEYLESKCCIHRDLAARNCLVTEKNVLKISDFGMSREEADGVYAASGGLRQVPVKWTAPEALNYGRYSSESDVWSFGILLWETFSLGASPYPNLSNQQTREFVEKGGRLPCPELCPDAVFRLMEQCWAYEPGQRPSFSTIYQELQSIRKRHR

Sequence	phosphorylation enrichment
GVKLTYGDAQS [SLC28A1_Y404_N409S]	0.646
FQRLQYIKQLG [SAMHD1_Y146_R145Q]	0.854
LVPAWYIGFLC [KCNQ2_Y237_T234P]	1.28
NRLTDYFELLL [BBS10_Y536_P539L_YF]	1.31
AFSTVYKGLWI [EGFR_Y727_G724S]	1.1
TLNHQYDFTFD [CSNK1A1_Y292_YF]	1.07
EPDSLYGCGGG [ATM_Y2019]	1.26
RASGIYYVPKG [APBB1IP_Y340]	1.24
EGLKVYINGTL [ADGRD1_Y183_V184I]	1.49
QFKDKYLAKHN [CASK_Y712_YF]	0.467
RLLRGYNQSAF [HLA-C_Y137_D138N_YF]	0.804
RSIGEYDVLRG [PRKDC_Y2936]	0.786
LAARYYNWVSF [FLT4_Y1231]	1.8
NFAKMYCNPDA [KNL1_Y489_YF]	1.02
IDSTPYGQWYE [RPS8_Y109_R110G]	1.18
GGFTCYCDGKK [PROS1_Y266_YF]	1.19
LVKDPYVMFPQ [PLEKHG2_Y489_P484L]	1.93
KPLMPSMRYSR [SMARCE1_Y73_Y73S]	0.756
VSKGGYFSVNL [C3orf33_Y164]	0.972
AAILGYCRGEA [XPC_Y669]	1.02
YGAHNYHPLPV [OAT_Y55]	0.728
KVKPIYFHTRG [AR_Y916_Q920R]	0.892
CTTFHYNYMCN [TP53_Y234_I232F]	1.05
FRAPGYREVVI [TNS2_Y673_YF]	0.618
LLREWYMIISR [HUWE1_Y4066]	1.45
KLFIEYPTGSG [IRF2BPL_Y423]	0.775
CTNELYMMMRD [FGFR1_Y730]	1.38
ARGMEYLAEQK [MST1R_Y1198_G1195S]	0.914
RGVTRYIYNRE [HLA-DQB1_Y62_Y58G]	1.16

Molecular target: EPHB1 (UniProt P54762)
Sequence (P54762 whole entry, looked up): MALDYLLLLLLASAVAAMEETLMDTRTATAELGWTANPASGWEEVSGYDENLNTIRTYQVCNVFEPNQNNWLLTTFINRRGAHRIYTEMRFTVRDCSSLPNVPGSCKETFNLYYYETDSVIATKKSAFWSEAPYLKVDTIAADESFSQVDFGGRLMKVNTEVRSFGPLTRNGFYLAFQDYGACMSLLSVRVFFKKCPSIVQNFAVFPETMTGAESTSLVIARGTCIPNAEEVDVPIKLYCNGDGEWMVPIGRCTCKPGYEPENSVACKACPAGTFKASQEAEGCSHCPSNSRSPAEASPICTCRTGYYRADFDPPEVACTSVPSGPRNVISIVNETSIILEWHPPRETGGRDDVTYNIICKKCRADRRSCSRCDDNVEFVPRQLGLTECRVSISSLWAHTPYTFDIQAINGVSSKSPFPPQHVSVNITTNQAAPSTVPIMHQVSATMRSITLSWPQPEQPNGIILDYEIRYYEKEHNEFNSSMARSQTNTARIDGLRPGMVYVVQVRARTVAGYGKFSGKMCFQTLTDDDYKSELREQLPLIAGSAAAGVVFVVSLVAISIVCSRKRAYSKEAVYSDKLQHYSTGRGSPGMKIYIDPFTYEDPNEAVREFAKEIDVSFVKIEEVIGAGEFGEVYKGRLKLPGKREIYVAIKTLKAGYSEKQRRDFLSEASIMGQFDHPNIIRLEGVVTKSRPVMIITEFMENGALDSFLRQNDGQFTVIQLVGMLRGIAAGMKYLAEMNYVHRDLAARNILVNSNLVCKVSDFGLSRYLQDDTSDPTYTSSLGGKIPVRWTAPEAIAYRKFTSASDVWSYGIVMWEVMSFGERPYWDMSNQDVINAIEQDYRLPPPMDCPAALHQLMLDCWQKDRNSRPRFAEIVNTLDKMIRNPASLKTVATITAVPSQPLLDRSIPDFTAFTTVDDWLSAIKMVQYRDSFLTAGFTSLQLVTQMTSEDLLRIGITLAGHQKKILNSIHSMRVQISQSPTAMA
Test: as above

Sequence	phosphorylation enrichment
GVKLTYGDAQS [SLC28A1_Y404_N409S]	0.472
FQRLQYIKQLG [SAMHD1_Y146_R145Q]	0.92
LVPAWYIGFLC [KCNQ2_Y237_T234P]	0.599
NRLTDYFELLL [BBS10_Y536_P539L_YF]	0.654
AFSTVYKGLWI [EGFR_Y727_G724S]	0.578
TLNHQYDFTFD [CSNK1A1_Y292_YF]	0.553
EPDSLYGCGGG [ATM_Y2019]	0.663
RASGIYYVPKG [APBB1IP_Y340]	16.6
EGLKVYINGTL [ADGRD1_Y183_V184I]	0.663
QFKDKYLAKHN [CASK_Y712_YF]	0.53
RLLRGYNQSAF [HLA-C_Y137_D138N_YF]	0.503
RSIGEYDVLRG [PRKDC_Y2936]	0.738
LAARYYNWVSF [FLT4_Y1231]	1.09
NFAKMYCNPDA [KNL1_Y489_YF]	0.502
IDSTPYGQWYE [RPS8_Y109_R110G]	0.596
GGFTCYCDGKK [PROS1_Y266_YF]	0.608
LVKDPYVMFPQ [PLEKHG2_Y489_P484L]	0.91
KPLMPSMRYSR [SMARCE1_Y73_Y73S]	0.328
VSKGGYFSVNL [C3orf33_Y164]	0.556
AAILGYCRGEA [XPC_Y669]	0.567
YGAHNYHPLPV [OAT_Y55]	1.24
KVKPIYFHTRG [AR_Y916_Q920R]	0.452
CTTFHYNYMCN [TP53_Y234_I232F]	0.809
FRAPGYREVVI [TNS2_Y673_YF]	0.466
LLREWYMIISR [HUWE1_Y4066]	0.703
KLFIEYPTGSG [IRF2BPL_Y423]	0.478
CTNELYMMMRD [FGFR1_Y730]	1.86
ARGMEYLAEQK [MST1R_Y1198_G1195S]	0.488
RGVTRYIYNRE [HLA-DQB1_Y62_Y58G]	0.912

Molecular target: Hck (UniProt P08631)
Sequence (P08631 whole entry, looked up): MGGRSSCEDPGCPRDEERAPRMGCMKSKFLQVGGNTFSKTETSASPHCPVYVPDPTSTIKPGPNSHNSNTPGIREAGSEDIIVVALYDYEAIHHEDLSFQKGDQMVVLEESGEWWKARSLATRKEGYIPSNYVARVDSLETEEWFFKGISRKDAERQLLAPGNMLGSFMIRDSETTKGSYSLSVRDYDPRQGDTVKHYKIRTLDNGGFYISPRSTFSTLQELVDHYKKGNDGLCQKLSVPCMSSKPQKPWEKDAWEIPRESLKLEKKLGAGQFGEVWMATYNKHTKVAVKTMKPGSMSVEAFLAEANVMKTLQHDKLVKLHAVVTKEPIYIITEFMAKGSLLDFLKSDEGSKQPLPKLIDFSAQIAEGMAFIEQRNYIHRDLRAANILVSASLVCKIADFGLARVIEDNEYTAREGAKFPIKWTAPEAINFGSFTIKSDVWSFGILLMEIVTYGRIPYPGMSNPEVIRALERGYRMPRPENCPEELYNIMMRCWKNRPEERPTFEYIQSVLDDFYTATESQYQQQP
Test: as above

Sequence	phosphorylation enrichment
GVKLTYGDAQS [SLC28A1_Y404_N409S]	0.456
FQRLQYIKQLG [SAMHD1_Y146_R145Q]	0.418
LVPAWYIGFLC [KCNQ2_Y237_T234P]	0.516
NRLTDYFELLL [BBS10_Y536_P539L_YF]	0.509
AFSTVYKGLWI [EGFR_Y727_G724S]	0.445
TLNHQYDFTFD [CSNK1A1_Y292_YF]	0.495
EPDSLYGCGGG [ATM_Y2019]	2.94
RASGIYYVPKG [APBB1IP_Y340]	15.1
EGLKVYINGTL [ADGRD1_Y183_V184I]	0.541
QFKDKYLAKHN [CASK_Y712_YF]	0.384
RLLRGYNQSAF [HLA-C_Y137_D138N_YF]	0.402
RSIGEYDVLRG [PRKDC_Y2936]	3.99
LAARYYNWVSF [FLT4_Y1231]	0.64
NFAKMYCNPDA [KNL1_Y489_YF]	0.572
IDSTPYGQWYE [RPS8_Y109_R110G]	1.37
GGFTCYCDGKK [PROS1_Y266_YF]	0.484
LVKDPYVMFPQ [PLEKHG2_Y489_P484L]	2.48
KPLMPSMRYSR [SMARCE1_Y73_Y73S]	0.462
VSKGGYFSVNL [C3orf33_Y164]	0.483
AAILGYCRGEA [XPC_Y669]	0.467
YGAHNYHPLPV [OAT_Y55]	1.28
KVKPIYFHTRG [AR_Y916_Q920R]	0.527
CTTFHYNYMCN [TP53_Y234_I232F]	0.514
FRAPGYREVVI [TNS2_Y673_YF]	0.416
LLREWYMIISR [HUWE1_Y4066]	0.441
KLFIEYPTGSG [IRF2BPL_Y423]	0.431
CTNELYMMMRD [FGFR1_Y730]	1.47
ARGMEYLAEQK [MST1R_Y1198_G1195S]	0.46
RGVTRYIYNRE [HLA-DQB1_Y62_Y58G]	0.97

System: c-Abl (mouse)
Test: as above

Sequence	phosphorylation enrichment
GVKLTYGDAQS [SLC28A1_Y404_N409S]	0.52
FQRLQYIKQLG [SAMHD1_Y146_R145Q]	0.665
LVPAWYIGFLC [KCNQ2_Y237_T234P]	0.804
NRLTDYFELLL [BBS10_Y536_P539L_YF]	0.765
AFSTVYKGLWI [EGFR_Y727_G724S]	0.814
TLNHQYDFTFD [CSNK1A1_Y292_YF]	0.705
EPDSLYGCGGG [ATM_Y2019]	1.04
RASGIYYVPKG [APBB1IP_Y340]	43.9
EGLKVYINGTL [ADGRD1_Y183_V184I]	0.8
QFKDKYLAKHN [CASK_Y712_YF]	0.35
RLLRGYNQSAF [HLA-C_Y137_D138N_YF]	0.316
RSIGEYDVLRG [PRKDC_Y2936]	1.55
LAARYYNWVSF [FLT4_Y1231]	1.68
NFAKMYCNPDA [KNL1_Y489_YF]	0.836
IDSTPYGQWYE [RPS8_Y109_R110G]	0.719
GGFTCYCDGKK [PROS1_Y266_YF]	0.758
LVKDPYVMFPQ [PLEKHG2_Y489_P484L]	0.943
KPLMPSMRYSR [SMARCE1_Y73_Y73S]	0.49
VSKGGYFSVNL [C3orf33_Y164]	0.682
AAILGYCRGEA [XPC_Y669]	0.718
YGAHNYHPLPV [OAT_Y55]	0.675
KVKPIYFHTRG [AR_Y916_Q920R]	0.633
CTTFHYNYMCN [TP53_Y234_I232F]	0.955
FRAPGYREVVI [TNS2_Y673_YF]	0.525
LLREWYMIISR [HUWE1_Y4066]	0.931
KLFIEYPTGSG [IRF2BPL_Y423]	0.521
CTNELYMMMRD [FGFR1_Y730]	0.898
ARGMEYLAEQK [MST1R_Y1198_G1195S]	0.599
RGVTRYIYNRE [HLA-DQB1_Y62_Y58G]	1
